Tests used:
[1] = target: Nsp1 in SARS-CoV-2-infected VeroE6 cells (SARS-CoV-2 USA-WA1/2020, UniProt P0DTD1); experiment: immunostaining of cells or tissue
[2] = target: SARS-CoV-2 Nsp1, full-length protein (recombinant) (SARS-CoV-2, reference, UniProt P0DTD1); experiment: ELISA
[3] = target: SARS-CoV-2 Nsp12 (recombinant) (SARS-CoV-2, reference, UniProt P0DTD1); experiment: western blot
[4] = target: Nsp12 in SARS-CoV-2-infected VeroE6 cells (SARS-CoV-2 USA-WA1/2020, UniProt P0DTD1); experiment: immunostaining of cells or tissue

B1: IgG 15497 (anti-Nsp1) (antibody, V domains shown)
VH: EVQLVESGGGLVQPGGSLRLSCAASGFNFSSSSIHWVRQAPGKGLEWVASISSSYGYTYYADSVKGRFTISADTSKNTAYLQMNSLRAEDTAVYYCARWAAMDYWGQGTLVTVSS
VL: DIQMTQSPSSLSASVGDRVTITCRASQSVSSAVAWYQQKPGKAPKLLIYSASSLYSGVPSRFSGSRSGTDFTLTISSLQPEDFATYYCQQYYSLITFGQGTKVEIK
- binding result [1]: binds

B2: Fab 15497 (Fab-phage clone) (Fab, V domains shown)
VH: B1 VH
VL: B1 VL
- binding result [2]: binds

B3: Fab 15498 (Fab-phage clone) (Fab, V domains shown)
VH: EVQLVESGGGLVQPGGSLRLSCAASGFNISSSSMHWVRQAPGKGLEWVAAVASFYGATYYADSVKGRFTISADTSKNTAYLQMNSLRAEDTAVYYCARAYHAGLDYWGQGTLVTVSS
VL: DIQMTQSPSSLSASVGDRVTITCRASQSVSSAVAWYQQKPGKAPKLLIYSASSLYSGVPSRFSGSRSGTDFTLTISSLQPEDFATYYCQQWYYYSAAVTFGQGTKVEIK
- binding result [2]: binds

B4: IgG 15884 (anti-Nsp12) (antibody, V domains shown)
VH: EVQLVESGGGLVQPGGSLRLSCAASGFNIYYYSMHWVRQAPGKGLEWVASIYSYYGYTSYADSVKGRFTISADTSKNTAYLQMNSLRAEDTAVYYCARHPAYGGMDYWGQGTLVTVSS
VL: DIQMTQSPSSLSASVGDRVTITCRASQSVSSAVAWYQQKPGKAPKLLIYSASSLYSGVPSRFSGSRSGTDFTLTISSLQPEDFATYYCQQSHWHPITFGQGTKVEIK
- binding result [3]: binds
- binding result [4]: binds
